One block for each binder: values may come before it. Where no end group is shown, it is not given here.
What was measured:
[1] = target: T1, GID4^Δ1–115 (human, UniProt Q8IVV7 116-300); assay: fluorescence polarisation; saturation binding: 20 nM TAMRA-labeled peptide with indicated GID4^Δ1–115 concentrations, 10 min, FP buffer (20 mM MOPS pH 7.6, 100 mM NaCl, 25 mM D-trehalose, 1% glycerol, 0.01% Triton X-100, 0.1 g/l BSA); one site-specific binding model; conditions: both partners purified
T1 construct: also called recombinant GID4 lacking its N-terminal domain; source: E. coli Rosetta 2(DE3)pLysS, purified (Strep-Tactin, Ulp1 cleavage, size-exclusion chromatography); not shown: 2xStrepII, N-terminal, cleaved; Smt3, N-terminal, cleaved
T1 sequence (looked up): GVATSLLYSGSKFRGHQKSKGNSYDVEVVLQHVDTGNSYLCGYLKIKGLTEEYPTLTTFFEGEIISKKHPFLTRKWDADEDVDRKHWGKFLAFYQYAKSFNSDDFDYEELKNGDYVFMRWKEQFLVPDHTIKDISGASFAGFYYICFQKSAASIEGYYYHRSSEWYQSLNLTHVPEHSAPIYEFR

[2] = target: T1, GID4^Δ1–115; assay: fluorescence polarisation; competition: 20 μM GID4^Δ1–115 and 20 nM PGLWKS-TAMRA, 10 min with twofold dilutions of unlabeled peptides in FP buffer; log(inhibitor) versus response, variable slope; conditions: both partners purified

Kd [1]: 2.4 µM
B1: PGLWKS-TAMRA (peptide)
peptide: PGLWKS-{TAMRA}
notes: control degron peptide (Dong et al, 2018); also called TAMRA-labeled control peptide PGLWKS

IC50 [2]: 83.4 µM
B2: PGKLRSDAG (peptide)
peptide: PGKLRSDAG
notes: amino terminus of DDX21 (Owens et al, 2024), without the initiator methionine; also called N-terminal peptide of DDX21

IC50 [2]: 30.3 µM
Binder: PGLWKS (control degron peptide, unlabeled) [unlabeled PGLWKS]
